{"source": "patent US9493781B2", "about": "“Synthetic brassica-derived chloroplast transit peptides” (DOW AGROSCIENCES LLC, priority 2012, dated 2016)", "molecules": {"B1": {"name": "pDAB105530: TraP5 v2 - dgt-28 v5: binary construct TraP5 v2: dgt-28 v5 (SEQ ID NO:33) (nucleic acid)", "DNA": "ATGCAACTCCTGAATCAGAGGCAAGCCCTGCGTCTTGGTCGTTCATCTGCTTCAAAGAACCAGCAAGTTGCTCCACTGGCCTCTAGGCCTGCTTCTTCCTTGAGCGTCAGCGCATCCAGCGTCGCACCTGCACCTGCTTGCTCAGCTCCTGCTGGAGCTGGAAGGCGTGCTGTTGTCGTGAGAGCAGCAAGAGGGATGCCAGCCTTGTCTTTACCTGGATCAAAGAGTATCACAGCTAGGGCACTCTTTCTTGCTGCTGCTGCTGATGGGGTTACTACTTTGGTGAGGCCATTGAGAAGTGACGACACAGAAGGATTCGCTGAGGGGTTAGTTCGTTTAGGCTATCGTGTAGGGAGGACACCCGATACTTGGCAAGTCGATGGCAGACCACAAGGACCAGCAGTGGCTGAGGCTGACGTCTACTGTAGAGACGGAGCAACCACCGCTAGATTCTTGCCAACCTTAGCAGCTGCTGGTCACGGAACATACAGATTTGATGCTTCACCACAGATGAGGAGACGTCCTCTTTTGCCCTTAAGCAGAGCCTTGAGGGATTTGGGTGTCGATCTTAGACACGAAGAAGCTGAAGGTCATCACCCTCTGACTGTCCGTGCTGCTGGGGTTGAAGGAGGAGAGGTTACTTTGGATGCTGGTCAGTCAAGTCAGTATCTCACTGCCTTGTTGCTCCTTGGTCCCCTTACAAGACAAGGACTGAGGATAAGGGTTACTGATTTGGTGTCAGCACCATACGTGGAGATTACGCTTGCAATGATGAGGGCTTTCGGAGTTGAAGTGGCAAGGGAGGGAGATGTGTTCGTTGTTCCACCTGGTGGATATCGTGCAACTACGTATGCTATAGAACCCGACGCAAGTACTGCTTCTTACTTCTTCGCAGCTGCTGCTTTGACTCCTGGAGCTGAAGTGACTGTACCTGGGTTAGGCACGGGAGCACTTCAAGGAGATTTGGGATTTGTAGATGTCTTAAGGAGAATGGGAGCCGAGGTGTCCGTAGGAGCTGATGCAACCACTGTTAGAGGAACTGGTGAATTGCGTGGCCTTACAGCCAACATGAGAGACATAAGTGATACGATGCCGACCCTCGCTGCAATAGCACCCTTTGCTAGTGCTCCAGTTAGAATCGAGGATGTTGCCAACACTCGTGTCAAAGAATGTGACAGACTTGAGGCTTGTGCAGAGAACCTTAGGAGGTTGGGAGTAAGGGTTGCAACGGGTCCGGACTGGATTGAGATACACCCTGGTCCAGCTACTGGTGCTCAAGTCACAAGCTATGGTGATCACAGAATTGTGATGTCATTTGCAGTGACTGGACTTCGTGTGCCTGGGATCAGCTTCGACGACCCTGGCTGTGTTCGTAAGACTTTTCCTGGGTTTCACGAGGCTTTCGCAGAATTGAGGCGTGGCATTGGGAGCTGA", "modifications": "In-frame fusion of dgt-28 v5 and TraP5 v2"}}, "key": {"Arabidopsis [1]": {"test_system": "Arabidopsis", "assay": "dgt-28, dgt-32, dgt-33, dgt-3, dgt-7 transformed Arabidopsis (T1, T2, T3) response to postemergence glyphosate, % visual injury", "type": "in vivo, Arabidopsis thaliana", "details": "for % Injury Ave / % Injury Range (%) / No. plants with 20-40% injury / No. plants with <20% injury / No. plants with >40% injury: 14 days after application", "source_text": "Transgenic T1 Arabidopsis plants containing the dgt-28 transgene were sprayed with differing rates of glyphosate. Elevated rates were applied in this study to determine the relative levels of resistance (105, 420, 1,680 or 3,360 g ae/ha). A typical 1× usage rate of glyphosate that will control non-transformed Arabidopsis is 420 g ae/ha. […] The T1 Arabidopsis plants that were used in this study were variable copy number for the dgt-28 transgene. The low copy dgt-28 T1 Arabidopsis plants were self-pollinated and used to produce T2 plants.\nResults of Glyphosate Selection of Transformed dgt-28 Arabidopsis Plants. The Arabidopsis T1 transformants were first selected from the background of untransformed seed using a glufosinate selection scheme. Three flats or 30,000 seed were analyzed for each T1 construct. The T1 plants selected above were molecularly characterized and representative plants with variable copy number were subsequently transplanted to individual pots and sprayed with various rates of commercial glyphosate as previously described. The response of these plants is presented in terms of % visual injury 2 weeks after treatment (WAT). […] An arithmetic mean and standard deviation is presented for each construct used for Arabidopsis transformation. The range in individual response is also indicated in the last column for each rate and transformation. Wild-type, non-transformed Arabidopsis (c.v. Columbia) served as a glyphosate sensitive control.\nT2Arabidopsis Data. The second generation plants (T2) of selected T1 Arabidopsis events which contained low copy numbers of the dgt-28 transgene were further characterized for glyphosate tolerance. Glyphosate was applied as described previously. The response of the plants is presented in terms of % visual injury 2 weeks after treatment (WAT). […] An arithmetic mean and standard deviation are presented for each construct used for Arabidopsis transformation. The range in individual response is also indicated in the last column for each rate and transformation. Wild-type, non-transformed Arabidopsis (cv. Columbia) served as a glyphosate sensitive control. In the T2 generation hemizygous and homozygous plants were available for testing for each event and therefore were included for each rate of glyphosate tested. Hemizygous plants contain two different alleles at a locus as compared to homozygous plants which contain the same two alleles at a locus. Variability of response to glyphosate is expected in the T2 generation as a result of the difference in gene dosage for hemizygous as compared to homozygous plants. The variability in response to glyphosate is reflected in the standard deviation and range of response.\nT3 Arabidopsis Data. The third generation plants (T3) of selected T2 Arabidopsis events which contained low copy numbers of the dgt-28 transgene were further characterized for glyphosate tolerance. […] Glyphosate was applied as described previously. The response of the plants is presented in terms of % visual injury 2 weeks after treatment (WAT). […] An arithmetic mean and standard deviation are presented for each construct used for Arabidopsis transformation. The range in individual response is also indicated in the last column for each rate and transformation. Wild-type, non-transformed Arabidopsis (cv. Columbia) served as a glyphosate-sensitive control."}, "Arabidopsis [2]": {"test_system": "Arabidopsis", "assay": "Heritability progeny test of T1 families (T2 plants) with glufosinate, Arabidopsis", "type": "in vivo, Arabidopsis thaliana", "details": "progeny test of 100 T2 plants, glufosinate 200 g ae/ha", "source_text": "Heritability. Confirmed transgenic T1 Arabidopsis events were self-pollinated to produce T2 seed. These seed were progeny tested by applying Ignite™ herbicide containing glufosinate (200 g ae/ha) to 100 random T2 siblings. […] The T1 families (T2 plants) segregated in the anticipated 3 Resistant: 1 Sensitive model for a dominantly inherited single locus with Mendelian inheritance as determined by Chi square analysis (P>0.05). […] Seed were collected from 5 to 15 T2 individuals (T3 seed). Twenty-five T3 siblings from each of 3-4 randomly-selected T2 families were progeny tested as previously described."}, "[3]": {"details": "Table 8, T1 Arabidopsis, 105 g ae/ha glyphosate"}, "[4]": {"details": "Table 8, T1 Arabidopsis, 420 g ae/ha glyphosate"}, "[5]": {"details": "Table 8, T1 Arabidopsis, 1680 g ae/ha glyphosate"}, "[6]": {"details": "Table 8, T1 Arabidopsis, 3360 g ae/ha glyphosate"}, "[7]": {"details": "Table 10, T1 Arabidopsis, 1,680 g ae/ha glyphosate"}, "[8]": {"details": "Table 12, T2 Arabidopsis, 1 copy, 420 g ae/ha glyphosate"}, "[9]": {"details": "Table 12, T2 Arabidopsis, 1 copy, 840 g ae/ha glyphosate"}, "[10]": {"details": "Table 12, T2 Arabidopsis, 1 copy, 1680 g ae/ha glyphosate"}, "[11]": {"details": "Table 12, T2 Arabidopsis, 1 copy, 3360 g ae/ha glyphosate"}}}
{"molecule": "B1", "values": [{"measurement": "Glyphosate tolerance", "setting": "Arabidopsis [1]; T2 Arabidopsis, versus dgt-28 constructs with other TraP transit peptides", "result": "did not provide robust tolerance to glyphosate"}, {"measurement": "% Injury Ave", "setting": "Arabidopsis [1]; [3]", "result": 39.3, "unit": "%"}, {"measurement": "% Injury Range (%)", "setting": "Arabidopsis [1]; [3]", "result": "8-100%"}, {"measurement": "No. plants with 20-40% injury", "setting": "Arabidopsis [1]; [3]", "result": 2}, {"measurement": "No. plants with <20% injury", "setting": "Arabidopsis [1]; [3]", "result": 2}, {"measurement": "No. plants with >40% injury", "setting": "Arabidopsis [1]; [3]", "result": 2}, {"measurement": "% Injury Ave", "setting": "Arabidopsis [1]; [4]", "result": 33.0, "unit": "%"}, {"measurement": "% Injury Range (%)", "setting": "Arabidopsis [1]; [4]", "result": "8-85%"}, {"measurement": "No. plants with 20-40% injury", "setting": "Arabidopsis [1]; [4]", "result": 4}, {"measurement": "No. plants with <20% injury", "setting": "Arabidopsis [1]; [4]", "result": 1}, {"measurement": "No. plants with >40% injury", "setting": "Arabidopsis [1]; [4]", "result": 1}, {"measurement": "% Injury Ave", "setting": "Arabidopsis [1]; [5]", "result": 47.5, "unit": "%"}, {"measurement": "% Injury Range (%)", "setting": "Arabidopsis [1]; [5]", "result": "25-85%"}, {"measurement": "No. plants with 20-40% injury", "setting": "Arabidopsis [1]; [5]", "result": 4}, {"measurement": "No. plants with <20% injury", "setting": "Arabidopsis [1]; [5]", "result": 0}, {"measurement": "No. plants with >40% injury", "setting": "Arabidopsis [1]; [5]", "result": 2}, {"measurement": "% Injury Ave", "setting": "Arabidopsis [1]; [6]", "result": 76.7, "unit": "%"}, {"measurement": "% Injury Range (%)", "setting": "Arabidopsis [1]; [6]", "result": "50-85%"}, {"measurement": "No. plants with 20-40% injury", "setting": "Arabidopsis [1]; [6]", "result": 0}, {"measurement": "No. plants with <20% injury", "setting": "Arabidopsis [1]; [6]", "result": 0}, {"measurement": "No. plants with >40% injury", "setting": "Arabidopsis [1]; [6]", "result": 6}, {"measurement": "% Injury Ave", "setting": "Arabidopsis [1]; [7]", "result": 47.5, "unit": "%"}, {"measurement": "% Injury Range (%)", "setting": "Arabidopsis [1]; [7]", "result": "25-85%"}, {"measurement": "No. plants with 20-40% injury", "setting": "Arabidopsis [1]; [7]", "result": 4}, {"measurement": "No. plants with <20% injury", "setting": "Arabidopsis [1]; [7]", "result": 0}, {"measurement": "No. plants with >40% injury", "setting": "Arabidopsis [1]; [7]", "result": 2}, {"measurement": "% Injury Ave", "setting": "Arabidopsis [1]; [8]", "result": 75.0, "unit": "%"}, {"measurement": "% Injury Range (%)", "setting": "Arabidopsis [1]; [8]", "result": "50-90%"}, {"measurement": "No. plants with 20-40% injury", "setting": "Arabidopsis [1]; [8]", "result": 0}, {"measurement": "No. plants with <20% injury", "setting": "Arabidopsis [1]; [8]", "result": 0}, {"measurement": "No. plants with >40% injury", "setting": "Arabidopsis [1]; [8]", "result": 4}, {"measurement": "% Injury Ave", "setting": "Arabidopsis [1]; [9]", "result": 80.0, "unit": "%"}, {"measurement": "% Injury Range (%)", "setting": "Arabidopsis [1]; [9]", "result": "50-90%"}, {"measurement": "No. plants with 20-40% injury", "setting": "Arabidopsis [1]; [9]", "result": 0}, {"measurement": "No. plants with <20% injury", "setting": "Arabidopsis [1]; [9]", "result": 0}, {"measurement": "No. plants with >40% injury", "setting": "Arabidopsis [1]; [9]", "result": 4}, {"measurement": "% Injury Ave", "setting": "Arabidopsis [1]; [10]", "result": 75.0, "unit": "%"}, {"measurement": "% Injury Range (%)", "setting": "Arabidopsis [1]; [10]", "result": "60-85%"}, {"measurement": "No. plants with 20-40% injury", "setting": "Arabidopsis [1]; [10]", "result": 0}, {"measurement": "No. plants with <20% injury", "setting": "Arabidopsis [1]; [10]", "result": 0}, {"measurement": "No. plants with >40% injury", "setting": "Arabidopsis [1]; [10]", "result": 4}, {"measurement": "% Injury Ave", "setting": "Arabidopsis [1]; [11]", "result": 76.3, "unit": "%"}, {"measurement": "% Injury Range (%)", "setting": "Arabidopsis [1]; [11]", "result": "70-80%"}, {"measurement": "No. plants with 20-40% injury", "setting": "Arabidopsis [1]; [11]", "result": 0}, {"measurement": "No. plants with <20% injury", "setting": "Arabidopsis [1]; [11]", "result": 0}, {"measurement": "No. plants with >40% injury", "setting": "Arabidopsis [1]; [11]", "result": 4}, {"measurement": "T1 Families Tested Segregating at 1 Locus (%)", "setting": "Arabidopsis [2]", "result": 100, "unit": "%"}]}
